The supplement of paper PMC10567573

B1: FAM107A (parent)
chain: LQRVLEHRRRNQLIKKKKEELEAK
B2: ZER1 (parent)
chain: KEMARKVIEHCSNFKEENMDTSR

Variants of: B1
Assay: protein stability index of a GFP-peptide fusion (GPS, HEK-293T) (PSI 1-6); higher = more stable
Conditions: c terminus: a fixed tail appended
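Also: lentivirally expressed fusions sorted by FACS into six bins by GFP to DsRed ratio, PSI derived from sequencing read proportions per bin multiplied by bin number.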

Protein stability index, by site and new letter:
R10: I 3.3; F 3.21; D 4.77; C 3.14; K 3.29; G 4.15; L 3.66; M 2.85; N 3.55; E 3.75; A 4.01; H 3.2
L5: A 4.08; S 4.46; G 4.73; E 4.38; P 4.69; R 4.04; N 4.27; T 4.38; I 3.2; Y 2.98; Q 3.94; H 5.17; M 4.19; F 3.77; W 3.71; C 3.69
R8: W 1.68; P 3.45; T 3.87; I 2.42; K 3.82; G 3.39; L 2.15; N 3.53; M 3.38; H 2.89; V 3.05; E 4.32; D 4.61; A 3.43; Q 3.38; F 2.1
E6: H 3.81; D 3.61; I 2.73; C 3.12; G 3.98; P 3.96; A 3.07; R 3.81; K 4.04; V 3.68; W 3.02; M 3.32; T 3.02; Y 3; F 3.63; L 2.79; S 4.13
H7: Y 1.69; R 3.19; N 3.67; E 3.9; K 1.82; G 4.29; P 3.4; D 4.04; I 3.06; C 3.37; F 3.1; L 3.34; Q 3.75; A 3.67; M 3.15
V4: G 3.52; N 4.87; P 4.66; F 2.05; M 3.1; E 4.49; K 4.39; R 4.14; T 3.92; S 3.69; L 2.87; H 3.68; A 4.09; W 2.09; Q 4.61
L1: Q 5.11; W 2.56; G 4.37; M 3.64; K 4.85; A 4.61; E 4.79; D 5.36; Y 3.02; T 4.72; P 4.66; F 3.13; I 2.73
R3: S 4.04; C 3.13; I 2.09; A 3.21; H 4.12; V 3.6; L 2.39; N 3.79; F 3.04; Q 3.92; T 3.8; D 4.5; Y 3.39; K 3.69; E 5.32; W 2.27
R9: I 2.72; C 3.23; G 4.14; L 1.72; Y 1.84; S 4.03; V 2.16; D 3.96; M 2.77; H 3.65; A 4.4; E 3.97; T 4.07; K 3.76; F 2.49; P 3.81
Q2: R 3.67; E 3.89; T 4.02; I 1.8; G 4.38; C 2.98; D 3.25; K 4.01; A 2.93; V 2.41; P 3.98; L 1.81; W 2.06; M 2.78; F 2.16; N 4.13; Y 2.13

Variants of: B2
Assay: as above
Conditions: c terminus: native

Protein stability index of substitutions, site by site:
T21: Q 3.84; F 3.84; R 1.65; P 4.17; Y 2.13; V 3.1; H 2.18; A 4.09; M 4.41; G 5.12; D 5.16; N 4.48; I 3.16; W 2.3; K 1.68; S 4.65; C 3.39; L 3.26; E 4.98
R23: L 4.86; S 4.84; N 5.16; V 4.76; Q 5.31; M 4.6; T 5.01; H 5.07; K 5.27; I 4.9; W 3.91; D 5.41; F 4.69; P 4.6; E 5.48; G 5.08; Y 4.54; A 4.67; C 4.72
D20: F 2.98; K 2.29; N 4.59; R 2.13; M 1.91; E 2.51; G 2.68; T 2.99; Y 2.89; L 1.87; C 2.08; Q 2.23; W 2.5; I 1.52; A 1.63; H 2.96; V 1.51; S 2.46; P 2.46
E16: T 3.1; F 2.46; R 2.98; A 2.9; H 2.79; L 2.52; K 3.85; N 3.19; Y 2.37; C 3.17; W 2.16; P 3.31; Q 3.14; S 4.19; M 2.68; D 3.07; I 2.45; G 3.83; V 3.43
E17: M 3.51; K 2.84; Q 3.19; W 2.2; C 2.68; Y 2.41; H 2.83; S 3.29; F 2.79; N 3.55; A 2.98; V 2.74; G 3.4; P 2.93; T 3.45; R 2.21; L 2.35; D 3.63; I 3.15
F14: N 4.73; T 4.46; R 4.55; M 4.4; Y 3.56; S 4.68; Q 4.73; P 4.26; V 4.94; W 3.33
S22: D 4.07; W 2.97; L 3.58; Y 3.76; H 3.09; T 4.42; P 4.29; F 3.72; V 3.7; E 3.74; G 3.48; M 3.43; N 4.12; Q 3.72; A 2.64; R 2.38; I 3.72; C 2.4; K 2.86
N18: D 3.52; Q 3.6; Y 3.08; A 3.34; K 2.99; M 3.54; E 4.22; S 3.7; V 3.46; F 3.07; W 3.6; G 4.02; L 2.91; C 3.3; R 2; I 3.31; T 3.45; P 3.9; H 3.47
K15: D 4.24; V 3.9; L 3.13; Y 3.27; Q 3.57; M 3.54; S 3.34; A 3.31; W 2.85; P 4.08; F 3.17; I 3.5; H 3.52; T 4.15; C 3.93; E 4.32; R 2.8; G 3.7; N 3.64
M19: T 3.92; R 3.62; F 3.94; S 3.63; P 3.58; H 3.77; E 4.15; Q 3.87; Y 3.71; D 4.46; K 2.81; C 3.51; V 3.77; G 3.37; I 4.32; W 3.64; N 4.29; L 3.47; A 3.68
